{"source": "patent US20050059089A1", "about": "(priority 2003, published 2005)", "key": {"GPCR142": {"biological_target": "GPCR142 (Homo sapiens, UniProt Q8TDU9, L329S)", "sequence (Q8TDU9 whole entry L329S)": "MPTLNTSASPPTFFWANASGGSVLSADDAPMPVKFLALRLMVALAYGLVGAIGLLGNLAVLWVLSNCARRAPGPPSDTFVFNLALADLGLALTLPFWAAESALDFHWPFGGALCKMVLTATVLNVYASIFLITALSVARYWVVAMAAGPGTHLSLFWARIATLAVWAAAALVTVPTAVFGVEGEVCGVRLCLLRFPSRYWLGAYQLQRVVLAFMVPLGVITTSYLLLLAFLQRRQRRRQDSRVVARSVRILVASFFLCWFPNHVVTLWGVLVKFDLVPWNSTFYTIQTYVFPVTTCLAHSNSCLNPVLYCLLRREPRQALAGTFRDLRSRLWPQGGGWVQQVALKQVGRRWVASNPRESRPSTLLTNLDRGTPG", "assay": "Inhibition of forskolin-stimulated cAMP (CRE-β-galactosidase) in SK-N-MC cells", "assay_type": "cell-based", "set-up": "The complete coding region of human GPCR142 was PCR-amplified from human genomic DNA; expressed in transfected cells; HEK293 co-transfected with Gqi5 (Ca2+)", "conditions": "SK-N-MC cells stably expressing GPCR142", "description": "SK-N-MC cells stably expressing GPCR142 were established by transfection of GPCR142 expressing plasmids into SK-N-MC cells harboring a β-galactosidase gene under control of multiple cAMP responsive elements. The stable transfectants were selected by culturing the transfected cells under G418 selection (400 mg/L). The receptor expressing cells were seeded in 96-well plates at a cell density of 30,000 cells/well. After 24 h, cells were stimulated with forskolin or different peptides. Cells were cultured for an additional 6 h and the intracellular β-gal activity, which represents the intracellular cAMP accumulation, was measured as described by Liu et al. (2000), Mol. Pharmacol., 59, 420-426."}, "GPCR135 [1]": {"biological_target": "T1, GPCR135 (Homo sapiens, UniProt Q9NSD7)", "T1 sequence (Q9NSD7 1-469)": "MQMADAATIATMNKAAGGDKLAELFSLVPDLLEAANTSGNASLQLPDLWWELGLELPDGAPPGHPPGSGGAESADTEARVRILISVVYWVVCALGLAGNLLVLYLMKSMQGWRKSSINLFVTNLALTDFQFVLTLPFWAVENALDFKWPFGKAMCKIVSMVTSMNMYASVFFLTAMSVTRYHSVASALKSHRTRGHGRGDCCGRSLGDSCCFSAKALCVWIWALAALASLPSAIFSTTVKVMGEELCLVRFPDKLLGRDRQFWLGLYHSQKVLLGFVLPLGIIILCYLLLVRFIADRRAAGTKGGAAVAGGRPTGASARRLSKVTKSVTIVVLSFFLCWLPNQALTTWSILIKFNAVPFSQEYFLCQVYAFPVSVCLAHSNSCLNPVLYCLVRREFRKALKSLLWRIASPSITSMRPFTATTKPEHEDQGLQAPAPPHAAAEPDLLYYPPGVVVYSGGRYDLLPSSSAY", "assay": "Ca2+ mobilization assay, HEK293 cells co-expressing GPCR135 and Gα16", "assay_type": "cell-based", "set-up": "expressed in transfected cells; host or cells: HEK293 with Gα16 or Gqi5 (Ca2+)"}, "[2]": {"test_system": "HEK293 cells transfected by Gα16 alone", "assay": "Ca2+ mobilization assay, HEK293 cells transfected by Gα16 alone", "assay_type": "cell-based, human", "conditions": "cells expressing Gα16 alone (no receptor)", "description": "(§1) Human embryonic kidney (HEK) 293 cells were transfected with GPCR135,.GPCR142 or co-transfected with Gqi5 (Conklin et al. (1993), Nature 363, 274-280) or Gα16 (Amatruda et al. (1991), Proc. Natl. Acad. Sci. U.S.A. 88, 5587-5591) expressing plasmids using LipofectAmine. Two days after transfection, cells were detached with PBS plus 10 mM EDTA. The detached cells were washed with DMEM-F12 medium (without phenol red, Invitrogen) and seeded in black poly-D lysine coated 96-well plates (BD Biosciences, San Jose, Calif.) at a cell density of 50,000 cell/well."}, "GPCR135 [3]": {"biological_target": "T1, GPCR135", "assay": "Ca2+ mobilization assay, 293 cells co-expressing GPCR135 and Gqi5", "assay_type": "cell-based", "description": "as §1"}, "GPCR135 [4]": {"biological_target": "T1, GPCR135", "assay": "Radioligand competition binding with 125I-relaxin3, COS-7 cell membranes", "set-up": "expressed in transfected cells; host or cells: COS-7 (membranes)", "conditions": "COS-7 membranes, 100 pM radioligand", "description": "Cell membranes from COS-7 cells transiently expressing GPCR142 were incubated with ^125I-relaxin3 either in the presence or absence of various concentrations of different competitors in 96-well plates at a final volume of 200 μL in binding buffer: 50 mM Tris-HCl (pH 7.4), 2 mM EDTA plus 0.5% BSA. The binding mixtures were incubated at room temperature for 1 h and then were filtered through 96-well GFC plates (Packard) and washed with ice-cold washing buffer: 50 mM Tris-HCl, pH 7.4. Fifty microliters of Microscint-40 were added to each well and the plates were counted in a Topcounter NTX (Packard). The radioligand binding results were analyzed using GraphPad PRISM software.\nThis binding assay was also performed using GPCR135.\nTo characterize INSL5 as the possible ligand for GPCR135 and GPCR142, cell membranes from COS-7 cells transiently expressing human GPCR135 or GPCR142 were used in the radioligand binding assays using [^125I)-relaxin3 as the radioligand as described by Liu et al. (2003a, 2003b). […] The binding assays were performed at room temperature for an incubation time of one hour. The binding mixtures were then filtered through GFC filters pre-saturated with 0.3 polyethylenimine (Sigma) and washed with cold binding buffer. The bound radioligand was counted in a top counter (TopCount/NTX, Packard) with Microscint-40. The results were analyzed by Prism 3.0 software."}, "GPCR135 [5]": {"biological_target": "T1, GPCR135", "assay": "GTPγS binding assay, GPCR135 expression membranes", "assay_type": "biochemical", "set-up": "expressed in transfected cells; host or cells: CHO membranes (GTPγS); HEK293 with Gα16 or Gqi5 (Ca2+)", "description": "The GPCR142 expression vector described above was transfected into CHO cells using Lipofectamine (Invitrogen) according to the manufacturer's instructions. Two days after transfection, the cells were harvested and the cell membranes were prepared by homogenizing the cells in cold 50 mM Tris-HCl, 5 mM EDTA, pH 7.5 followed by centrifugation at 4° C. 1000 g for 10 min. The supernatant was centrifuged at 4° C. 20,000 g for 30 min and the pellet was re-suspended in GTPγS binding buffer: 50 mM Tris-HCl, pH 7.4, 10 mM MgCl2, 1 mM EDTA, pH 8.0, and 100 mM NaCl using a polytron tissue homogenizer. Protease inhibitors were added to the buffer at concentrations of 1 mM PMSF, 10 μg/ml of pepstatin A, 10 μg/ml of leupeptin. Cell membranes and different concentrations of ligands were added to 96-well plates and incubated at room temperature for 20 min. ^35S-GTPγS (NEN) was then added to each well at a final concentration of […] in a final volume of 200 μL. The reactions were allowed to proceed at room temperature for 1 h, and then the mixtures were filtered though a 96-well GFC filter plate (Packard) and washed with cold washing buffer: 50 mM Tris-HCl, pH 7.4, 10 mM MgCl2. Fifty microliters of Microscint-40 (Packard) was added to each well and the plate was counted on a top counter (TopCount NTX, Packard).\nThe same assay was performed as described above, except using GPCR135 in place of GPCR142."}}}
{"substance": "relaxin3: Human relaxin3 (SEQ ID NO: 6), produced recombinantly; mature peptide of A- and B-chain linked by disulfide bridges", "values": [{"measurement": "inhibition of forskolin induced β-galactosidase expression", "setting": "GPCR142", "value": "dose-dependently inhibits"}, {"measurement": "stimulation of Ca2+ mobilization", "setting": "GPCR135 [1]", "value": "stimulated Ca2+ mobilization"}, {"measurement": "stimulation of Ca2+ mobilization", "setting": "GPCR135 [1]; listed as Relaxin3", "value": "stimulated Ca^2+ mobilization"}, {"measurement": "stimulation of Ca2+ mobilization", "setting": "[2]", "value": "did not respond"}, {"measurement": "stimulation of Ca2+ mobilization", "setting": "GPCR135 [3]", "value": "stimulates Ca^2+ mobilization"}, {"measurement": "displacement of 125I-relaxin3 binding to GPCR135", "setting": "GPCR135 [4]", "value": "specifically displaced"}, {"measurement": "stimulation of GTPγS binding", "setting": "GPCR135 [5]", "value": "stimulated GTPγS binding"}]}
